According to EP4803150A2 (Lyvgen Biopharma Holdings Limited, dated 2026):

Key:
PD-L1 = biological target: T1, PD-L1 (human, UniProt Q9NZQ7 19-238, limits assumed); assay: FCM or ELISA, graded
T1 construct: On Raji cells expressing human PD-L1 in the reporter assay

PD-1 = biological target: T2, PD-1 (human, UniProt Q15116 25-167, limits assumed); assay: FCM or ELISA, graded
T2 construct: On Jurkat T cells expressing human PD-1 in the reporter assay
T2 sequence (Q15116 25-167 limits assumed): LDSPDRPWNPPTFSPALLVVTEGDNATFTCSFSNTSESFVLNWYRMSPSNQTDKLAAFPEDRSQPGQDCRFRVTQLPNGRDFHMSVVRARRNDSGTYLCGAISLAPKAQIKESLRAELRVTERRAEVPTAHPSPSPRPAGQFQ

T1 sequence (Q9NZQ7 19-238 limits assumed): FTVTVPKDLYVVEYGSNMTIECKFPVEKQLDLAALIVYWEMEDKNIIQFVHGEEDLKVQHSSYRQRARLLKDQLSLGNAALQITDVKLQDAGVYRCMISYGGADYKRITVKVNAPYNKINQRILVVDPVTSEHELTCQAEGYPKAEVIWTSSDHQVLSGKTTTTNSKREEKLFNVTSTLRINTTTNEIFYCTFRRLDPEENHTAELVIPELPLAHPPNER

| Binder | binding result (PD-L1) | binding result (PD-1) |
| --- | --- | --- |
| Ly2846 (multi-specific antibody, anti-B7H3/CD3/PD-L1) chain 1: QVQLVQSGAEVKKPGASVKVSCKASGYTFTSYVMHWVRQKPGQGLEWIGYINPYNEGTESTDKFKGRATMTSDKSTSTVYMELSSLRSEDTAVYYCASIYYGYEGTYFGVWGQGTLVTVSSASTKGPSVFPLAPSSKSTSGGTAALGCLVKDYFPEPVTVSWNSGALTSGVHTFPAVLQSSGLYSLSSVVTVPSSSLGTQTYICNVNHKPSNTKVDKKVEPKSCGGGGSGGGGSGGGGSGGGGSEVQLVESGGGLVQPGGSLRLSCAASGFTFSTYAMNWVRQAPGKGLEWVGRIRSKYNNYATYYADSVKGRFTISRDDSKNSLYLQMNSLKTEDTAVYYCVRHGNFGNSYVSWFAYWGQGTLVTVSSGGGGSDKTHTCPPCPAPELLGPSVFLFPPKPKDTLMISRTPEVTCVVVDVSHEDPEVKFNWYVDGVEVHNAKTKPREEQYNSTYRVVSVLTVLHQDWLNGKEYKCKVSNKALGAPIEKTISKAKGQPREPQVYTLPPSREEMTKNQVSLWCLVKGFYPSDIAVEWESNGQPENNYKTTPPVLDSDGSFFLYSKLTVDKSRWQQGNVFSCSVMHEALHNHYTQKSLSLSPGKGGGGSGGGGSGGGGSGGGGSQVQLVQSGAEVKKPGASVKVSCKASGYTFTDFWMSWVRQAPGQGLEWMGQIYPNTGTTHSNEKFKGRVTMTRDTSTSTVYMELSSLRSEDTAVYYCARSYHISTTPNWFAYWGQGTLVTVSS chain 2: QVQLVQSGAEVKKPGASVKVSCKASGYTFTSYVMHWVRQKPGQGLEWIGYINPYNEGTESTDKFKGRATMTSDKSTSTVYMELSSLRSEDTAVYYCASIYYGYEGTYFGVWGQGTLVTVSSASTKGPSVFPLAPSSKSTSGGTAALGCLVKDYFPEPVTVSWNSGALTSGVHTFPAVLQSSGLYSLSSVVTVPSSSLGTQTYICNVNHKPSNTKVDKKVEPKSCGGGGSGGGGSGGGGSGGGGSQAVVTQEPSLTVSPGGTVTLTCRSSTGAVTTSNYANWVQQKPGQAPRGLIGGTNKRAPWTPARFSGSLLGGKAALTITGAQAEDEADYYCALWYSNLWVFGGGTKLTVLGGGGSDKTHTCPPCPAPELLGPSVFLFPPKPKDTLMISRTPEVTCVVVDVSHEDPEVKFNWYVDGVEVHNAKTKPREEQYNSTYRVVSVLTVLHQDWLNGKEYKCKVSNKALGAPIEKTISKAKGQPREPQVYTLPPSREEMTKNQVSLSCAVKGFYPSDIAVEWESNGQPENNYKTTPPVLDSDGSFFLVSKLTVDKSRWQQGNVFSCSVMHEALHNRFTQKSLSLSPGKGGGGSGGGGSGGGGSGGGGSDIQMTQSPSSLSASVGDRVTITCKASQNVYKKLEWYQQKPGKVPKVLIYHTNILQTGVPSRFSGSGSGTDYTLTISSLQPEDVATYYCYQWNSGPTFGGGTKVEIK chain 3: EIVLTQSPATLSLSPGERATLSCRASSSVSYMHWYQQKPGQAPRPWIYATSNLASGIPARFSGSRSGTDYTLTISSLEPEDFAVYYCQQWSSNTLTFGGGTKVEIKRTVAAPSVFIFPPSDEQLKSGTASVVCLLNNFYPREAKVQWKVDNALQSGNSQESVTEQDSKDSTYSLSSTLTLSKADYEKHKVYACEVTHQGLSSPVTKSFNRGEC | binds | – |
| Ly2904 (multi-specific antibody, anti-B7H3/CD3/PD-1) chain 1: QVQLVQSGAEVKKPGASVKVSCKASGYTFTSYVMHWVRQKPGQGLEWIGYINPYNEGTESTDKFKGRATMTSDKSTSTVYMELSSLRSEDTAVYYCASIYYGYEGTYFGVWGQGTLVTVSSASTKGPSVFPLAPSSKSTSGGTAALGCLVKDYFPEPVTVSWNSGALTSGVHTFPAVLQSSGLYSLSSVVTVPSSSLGTQTYICNVNHKPSNTKVDKKVEPKSCGGGGSGGGGSGGGGSGGGGSEVQLVESGGGLVQPGGSLRLSCAASGFTFSTYAMNWVRQAPGKGLEWVGRIRSKYNNYATYYADSVKGRFTISRDDSKNSLYLQMNSLKTEDTAVYYCVRHGNFGNSYVSWFAYWGQGTLVTVSSGGGGSDKTHTCPPCPAPELLGPSVFLFPPKPKDTLMISRTPEVTCVVVDVSHEDPEVKFNWYVDGVEVHNAKTKPREEQYNSTYRVVSVLTVLHQDWLNGKEYKCKVSNKALGAPIEKTISKAKGQPREPQVYTLPPSREEMTKNQVSLWCLVKGFYPSDIAVEWESNGQPENNYKTTPPVLDSDGSFFLYSKLTVDKSRWQQGNVFSCSVMHEALHNHYTQKSLSLSPGKGGGGSGGGGSGGGGSGGGGSQVTLKESGPALVKPTQTLTLTCTFSGFSLSTSGTCVSWIRQPPGKALEWLATICWEDSKGYNPSLKSRLTISKDTSKNQAVLTMTNMDPVDTATYYCARREDSGYFWFPYWGQGTLVTVSS chain 2: QVQLVQSGAEVKKPGASVKVSCKASGYTFTSYVMHWVRQKPGQGLEWIGYINPYNEGTESTDKFKGRATMTSDKSTSTVYMELSSLRSEDTAVYYCASIYYGYEGTYFGVWGQGTLVTVSSASTKGPSVFPLAPSSKSTSGGTAALGCLVKDYFPEPVTVSWNSGALTSGVHTFPAVLQSSGLYSLSSVVTVPSSSLGTQTYICNVNHKPSNTKVDKKVEPKSCGGGGSGGGGSGGGGSGGGGSQAVVTQEPSLTVSPGGTVTLTCRSSTGAVTTSNYANWVQQKPGQAPRGLIGGTNKRAPWTPARFSGSLLGGKAALTITGAQAEDEADYYCALWYSNLWVFGGGTKLTVLGGGGSDKTHTCPPCPAPELLGPSVFLFPPKPKDTLMISRTPEVTCVVVDVSHEDPEVKFNWYVDGVEVHNAKTKPREEQYNSTYRVVSVLTVLHQDWLNGKEYKCKVSNKALGAPIEKTISKAKGQPREPQVYTLPPSREEMTKNQVSLSCAVKGFYPSDIAVEWESNGQPENNYKTTPPVLDSDGSFFLVSKLTVDKSRWQQGNVFSCSVMHEALHNRFTQKSLSLSPGKGGGGSGGGGSGGGGSGGGGSNIQMTQSPSSLSASVGDRVTITCKAGQNVNNYLAWYQQKPGKAPKVLIFNANSLQTGVPSRFSGSGSGTDFTLTISSLQPEDFATYYCQQYNSWPTFGGGTKVEIK chain 3: EIVLTQSPATLSLSPGERATLSCRASSSVSYMHWYQQKPGQAPRPWIYATSNLASGIPARFSGSRSGTDYTLTISSLEPEDFAVYYCQQWSSNTLTFGGGTKVEIKRTVAAPSVFIFPPSDEQLKSGTASVVCLLNNFYPREAKVQWKVDNALQSGNSQESVTEQDSKDSTYSLSSTLTLSKADYEKHKVYACEVTHQGLSSPVTKSFNRGEC | – | binds |
